This series can be described thus: protein stability index of a GFP-peptide fusion (GPS, HEK-293T) (PSI 1-6); higher = more stable.
The mark [1] stands for this setting: treatment: DMSO, c terminus: a fixed tail appended.
Where [2] appears, read: treatment: MLN4924 1 uM, 8 h, c terminus: a fixed tail appended.
Where [3] appears, read: treatment: DMSO, c terminus: native.
Setting [4] is: treatment: MLN4924 1 uM, 8 h, c terminus: native.

± gives the standard deviation.
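Also: 24-mer peptide tiles fused after GFP, lentivirally expressed, FACS-sorted into six equal bins by GFP/DsRed ratio, decoded by Illumina sequencing, PSI is the read-weighted mean bin number.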

For the sequence FNGLTLLLMAVVSMFTLPVVYVKH [RTN1], the protein stability index by setting is: under setting [1], 3.3 ± 0.28; under setting [2], 3 ± 0.41.

As to FPESETKECPFRVNKVCGAACSSK [SERPINB5], the protein stability index runs as follows: under setting [1], 2.8 ± 0.56; under setting [2], 3.55 ± 0.66.

As for FPKQILDQNNVIENEETGEFSIDN [MIA2], the protein stability index by setting is: under setting [1], 5.136 ± 0.027; under setting [2], 5.06 ± 0.24.

With FPRDHTSLALVQNGDVSAPSAILR [ANKRD40], the protein stability index runs as follows: under setting [1], 3.72 ± 0.34; under setting [2], 3.97 ± 0.2.

For the sequence FRNAASTLTERPCYNRRASKLTY [ANKRD40], the protein stability index by setting is: under setting [3], 3.26 ± 0.21; under setting [4], 3.16 ± 0.39.

As to FRNPMMSKLRNYRKDLAKLHREVR [VTI1B], the protein stability index under setting [1] was 2.37 ± 0.36 and the protein stability index under setting [2] was found to be 2.46 ± 0.24.

On to FRSPSMPCSVIRPILKRLERPQDR [CDC25B], for which the protein stability index was found to be 3.64 ± 0.19 under setting [1] and 3.56 ± 0.2 under setting [2].

In the case of FSDHTFRHYAYLRDSLSHLVPALR [INTS4], the protein stability index amounted to 2.27 ± 0.18 under setting [1] and 2.36 ± 0.2 under setting [2].

With FSFMYILVGLTVIGAFLNLVVLRF [KCNK9], the protein stability index stood at 3.18 ± 0.13 under setting [1] and 3.25 ± 0.31 under setting [2].

On to FSFSMKGHEKTAKSKTRSLLKRME [DLC1], for which the protein stability index is, setting by setting: under setting [1], 2.84 ± 0.24; under setting [2], 3.06 ± 0.23.

For the sequence FSHSGRYIMTRDYLTVKVWDLNME [PPP2R2B], the protein stability index by setting is: under setting [1], 2.63 ± 0.49; under setting [2], 2.3 ± 0.38.

FSTDAFSSPPQGASPVPESSLTAD [SNAP91] gave a protein stability index under setting [1] of 3.65 ± 0.57 and a protein stability index under setting [2] of 4.25 ± 0.43.

As for FTCDLQHTETGEEVLRMCVAVKKK [VPS39], the protein stability index by setting is: under setting [1], 2.84 ± 0.3; under setting [2], 2.96 ± 0.4.

FTEKLWPLFYPGIRAGRKNAAPLT [TRIM39]: the protein stability index is 2.59 ± 0.74 under setting [1] and 2.25 ± 0.16 under setting [2].

FTFLQPLPLSPGVLSSTPDHSFSL [ATF4] displayed a protein stability index under setting [1] of 2.2 ± 0.33 and a protein stability index under setting [2] of 2.19 ± 0.33.

For FTGKAEMGGPFSYVYFFCTVPEIL [TMEM106C], the protein stability index amounted to 2.72 ± 0.59 under setting [1] and 2.16 ± 0.87 under setting [2].

Consider FTKVVQPQEEIATKKLRLTKPSKS [INTS4], for which the protein stability index by setting is: under setting [1], 3.92 ± 0.57; under setting [2], 4.07 ± 0.3.

With FTMFLNLFGEKLSGTDAEETILNA [MYL5], the protein stability index worked out at 2.12 ± 0.37 under setting [1] and 2.21 ± 0.2 under setting [2].

As for GADPKSVVCAFFKQGQCTKGDKCK [ZC3H15], the protein stability index is, setting by setting: under setting [1], 3.82 ± 0.14; under setting [2], 4.28 ± 0.37.

For GAFRKGKSFILDFMLRYLYSQKES [ATL3], the protein stability index came to 2.3 ± 0.42 under setting [1] and 2.22 ± 0.49 under setting [2].

For the sequence GAQVNMPADSFESPLTLAACGGHV [ANKRD17], the protein stability index under setting [1] was 4.23 ± 0.23 and the protein stability index under setting [2] came to 4.24 ± 0.12.

GASTSCLLPVQVVTEHPLELIRVE [PCDHGC5]: the protein stability index reads like this: under setting [1], 3.12 ± 0.62; under setting [2], 3.29 ± 0.37.

Regarding GDPEEPLTGFSWRGGSDPETTGIQ [ATL3], the protein stability index amounted to 5.13 ± 0.22 under setting [1] and 5.17 ± 0.12 under setting [2].

For the sequence GDVLLDETLKHIKATEPTETVQTW [GOLPH3L], the protein stability index was determined as 4.41 ± 0.27 under setting [1] and 4.45 ± 0.26 under setting [2].

As for GDWIGLYRHFLKSPNFDGWFKTRR [DENND6A], the protein stability index was determined as 2.82 ± 0.038 under setting [1] and 2.49 ± 0.49 under setting [2].

For the sequence GEDRAGPQSPSPGAPPAAKPARG [TSPAN10], the protein stability index amounted to 5.32 ± 0.27 under setting [3] and 5.13 ± 0.12 under setting [4].

GEGNSSQNSRNKRAVQGPEETVTQ [TNFSF13B]: the protein stability index runs as follows: under setting [1], 5.51 ± 0.2; under setting [2], 5.47 ± 0.096.

For GEKPYECVQCGKSYSQSSNLFRHQ [ZNF24], the protein stability index runs as follows: under setting [1], 2.4 ± 0.62; under setting [2], 2.83 ± 0.56.

As for GELPNHPKPAGGAIPTKKSLPSPS [FBF1], the protein stability index is 5.2 ± 0.25 under setting [1] and 5.25 ± 0.16 under setting [2].

For the sequence GFSPIIGRFCGQQNPPVIKSSGRF [NETO1], the protein stability index runs as follows: under setting [1], 2.42 ± 0.29; under setting [2], 2.52 ± 0.75.

For the sequence GGGSNNGKTPVCHQCHKVIRGRYL [PDLIM7], the protein stability index by setting is: under setting [1], 2.81 ± 0.52; under setting [2], 3.07 ± 0.42.

GGIKTVDMRDPTYRPLKQELQGLD [SPSB1]: the protein stability index reads like this: under setting [1], 4.18 ± 0.37; under setting [2], 4.33 ± 0.27.

With GGNDLCVWNRKLDLLCKTSHLSDT [WDR41], the protein stability index came to 3.16 ± 0.39 under setting [1] and 3.05 ± 0.18 under setting [2].

GGTLAEFIQKRCNSLLEEETILHF [NEK8]: the protein stability index runs as follows: under setting [1], 1.97 ± 0.24; under setting [2], 1.99 ± 0.43.

Regarding GHEGSVSSCHFARDSSFLISGGFD [WDR88], the protein stability index worked out at 2.98 ± 0.33 under setting [1] and 3.1 ± 0.13 under setting [2].

Regarding GHHLLKWIIKSNYQGLPVRCVKSI [SRPK2], the protein stability index reads like this: under setting [1], 2.2 ± 0.56; under setting [2], 2.33 ± 0.34.

On to GHMDDGGYSMNFNMSSSRGPLPVK [RBMX], for which the protein stability index runs as follows: under setting [1], 4.05 ± 0.21; under setting [2], 3.95 ± 0.24.

With GHSTDAREMSKTFIIGELHPDDRP [CYB5A], the protein stability index is 4.38 ± 0.15 under setting [1] and 4.66 ± 0.16 under setting [2].

Consider GIQPGQEPPVTMIFMGYQNVEDEA [PALM], for which the protein stability index is, setting by setting: under setting [1], 3.94 ± 0.35; under setting [2], 4.02 ± 0.24.

GKSGLRVSCLGLGTWVTFGGQITD [KCNAB2] yielded a protein stability index under setting [1] of 2.2 ± 0.61 and a protein stability index under setting [2] of 2.04 ± 0.64.

Consider GKWQQQGDLQDTKENREEARFQDK [CHGB], for which the protein stability index is, setting by setting: under setting [1], 5.44 ± 0.36; under setting [2], 5.33 ± 0.16.

For GLEAASVYSDHTNTNNLTFLMDLP [RNF180], the protein stability index was 3.13 ± 0.26 under setting [1] and 3.22 ± 0.3 under setting [2].

For GLLQYGSTVKNEFSLKTFKRKSEV [MATN2], the protein stability index under setting [1] was 3.02 ± 0.25 and the protein stability index under setting [2] is 3.07 ± 0.35.

For the sequence GLPRSRDCRVDLGSEVYRMLREPA [PDLIM4], the protein stability index by setting is: under setting [1], 3.08 ± 0.15; under setting [2], 3.39 ± 0.2.

In the case of GLSAPARCLVRCLLRREPAERLTA [TRIB3], the protein stability index reads like this: under setting [1], 2.33 ± 0.12; under setting [2], 2.16 ± 0.32.

As to GLSDRAKEAKEFLVQLRNMVQQIQ [TRIM9], the protein stability index reads like this: under setting [1], 2.17 ± 0.56; under setting [2], 2.2 ± 0.23.

Regarding GMFTFLSSVTAAVSGLLVGYELGI [SLC2A12], the protein stability index by setting is: under setting [1], 2.891 ± 0.011; under setting [2], 2.75 ± 0.86.

In turn, GMSLAKELIFSARVLDGKEAKAVG [AUH] had a protein stability index under setting [1] of 3.45 ± 0.13 and a protein stability index under setting [2] of 3.48 ± 0.17.

For the sequence GNTIALFFRSLLPNYTMEGERPEE [TCF25], the protein stability index under setting [1] was 2.17 ± 0.62 and the protein stability index under setting [2] turned out to be 2.72 ± 0.21.

As to GPGFHAGTSALWRHLRSAHRRELE [ZBED3], the protein stability index under setting [1] was determined as 2.73 ± 0.34 and the protein stability index under setting [2] was determined as 3.13 ± 0.53.

In the case of GPGYWMCCHRSQKGFPGCKLGLHD [FBXO34], the protein stability index was 2.21 ± 0.44 under setting [1] and 2.11 ± 0.56 under setting [2].

Turning to GPQPTMEGDVLDTLEALGYKGPLL [FAM98B], the protein stability index is 4.18 ± 0.32 under setting [1] and 4.07 ± 0.38 under setting [2].

GPSRPAEKPPRPEAKSAQPADGWK [GCH1] had a protein stability index under setting [1] of 5.17 ± 0.082 and a protein stability index under setting [2] of 5.16 ± 0.18.

On to GPSTPSPVAAQFTSEGTTLSGVDL [FCHO1], for which the protein stability index was 5.2 ± 0.4 under setting [1] and 4.96 ± 0.53 under setting [2].

In the case of GQCQVLVQRSPWLMMRMGILGRGL [TCAP], the protein stability index under setting [1] was found to be 2.2 ± 0.14 and the protein stability index under setting [2] turned out to be 2.14 ± 0.16.

As to GQRGNTESKTDGDDTETVPSEQSH [TCF25], the protein stability index turned out to be 5.58 ± 0.21 under setting [1] and 5.54 ± 0.23 under setting [2].

As for GQRQPPPSEPTQGPEIVPRGAGP [DNAJC4], the protein stability index is 5.28 ± 0.51 under setting [3] and 5.49 ± 0.2 under setting [4].

As for GRCATRAFHRKSHSLDLNISEKLT [RNF180], the protein stability index runs as follows: under setting [1], 3.73 ± 0.43; under setting [2], 3.63 ± 0.42.

Regarding GRGVKKRLVLCMELANGKPQTRSG [ADAMTSL2], the protein stability index under setting [1] was determined as 2.19 ± 0.56.

As to GRLEGLIQPDDLINQLTFIMDANQ [FAF2], the protein stability index is, setting by setting: under setting [1], 2.8 ± 0.2; under setting [2], 2.77 ± 0.5.

GRQPCGRFLRAYREGALRAALQRS [TRADD]: the protein stability index worked out at 2.56 ± 0.15 under setting [1] and 2.45 ± 0.4 under setting [2].

For the sequence GRRVNAKMPVYSGSRPACQLQVPT [ELOA2], the protein stability index is 3.11 ± 0.32 under setting [1] and 3.49 ± 0.44 under setting [2].

GSIPGFLISSGMSSHKQGHTSSEY [TAF7L]: the protein stability index was 3.25 ± 0.23 under setting [1] and 3.29 ± 0.29 under setting [2].

On to GSKFRYSGRTQAQTRRASALIDRP [EPB41L3], for which the protein stability index is 3.35 ± 0.41 under setting [1] and 3.44 ± 0.27 under setting [2].

In the case of GSQRARVVNTDHGSPEQLQIPVTD [SDE2], the protein stability index is, setting by setting: under setting [1], 5.06 ± 0.22; under setting [2], 4.98 ± 0.34.

For GSRMMAVAALVVNFSQPVAGRPSL [NLN], the protein stability index under setting [1] worked out at 3.1 ± 0.68 and the protein stability index under setting [2] was found to be 2.56 ± 1.2.

On to GTDIVRGCDPLVKPVGRQACDLQP [ADAMTSL2], for which the protein stability index by setting is: under setting [1], 4.08 ± 0.22; under setting [2], 4.22 ± 0.059.

Sequence GTEFMQDPDEEHLKKSSQVPRTEA [PDLIM7] returned a protein stability index under setting [1] of 5.47 ± 0.12 and a protein stability index under setting [2] of 5.23 ± 0.26.

In the case of GTHPEDHQGHSDQHHHHHHHHHGR [RHOBTB2], the protein stability index under setting [1] turned out to be 4.9 ± 0.16 and the protein stability index under setting [2] came out at 5.01 ± 0.26.

Consider GTIHALIFAWNKWIDIKQFVWYTP [STEAP1], for which the protein stability index runs as follows: under setting [1], 3.28 ± 0.26; under setting [2], 2.18 ± 0.11.

As for GTVPGQAPRLAVAVPAVTSADSQF [LYSMD4], the protein stability index by setting is: under setting [1], 4.46 ± 0.28; under setting [2], 4.55 ± 0.17.

Take GVGKSAMTMQFISHRFPEDHDPTI [RIT1]: the protein stability index turned out to be 3.4 ± 0.24 under setting [1] and 3.46 ± 0.37 under setting [2].
